T1: rCsrA L. biflexa (Leptospira biflexa serovar Patoc, UniProt B0SQM8 1-79)
T1 sequence: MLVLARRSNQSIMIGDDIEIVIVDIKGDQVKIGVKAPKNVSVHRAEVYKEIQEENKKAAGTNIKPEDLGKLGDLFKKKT


What was measured:
[1] = molecular target: T1, rCsrA L. biflexa; assay: EMSA; dose-dependent, 100-800 nM rCsrA, 1 nM RNA; 10 mM HEPES pH 7.3, 20 mM KCl, 1 mM MgCl2, 1 mM DTT (plus 10 mM DTT), 7.5% glycerol, 0.2 ug/uL yeast tRNA, 37 C 30 min; 10% native PAGE; conditions: protein: recombinant; tags: N-terminal 6xHis (pRSET-C); chain copies: 2; label: 5' biotin; hairpin (predicted, GGA-containing hexaloop)
[2] = molecular target: T1, rCsrA L. biflexa; assay: EMSA; no interaction, 100-800 nM rCsrA, 1 nM RNA; 10 mM HEPES pH 7.3, 20 mM KCl, 1 mM MgCl2, 1 mM DTT (plus 10 mM DTT), 7.5% glycerol, 0.2 ug/uL yeast tRNA, 37 C 30 min; 10% native PAGE; conditions: protein: recombinant; tags: N-terminal 6xHis (pRSET-C); chain copies: 2; label: 5' biotin

Binder | binding result [1] | binding result [2]
UGGACACACAGGAGGGUGUGAC (structured_RNA) [LEPBIa_1872 WT (flaB3 upstream)] | binds | –
UGGACACACAAAAGGGUGUGAC (structured_RNA) [LEPBIa_1872 Mut (GGA to AAA)] | – | no binding
